Reference: patent US20050203009A1, “VPAC1 selective antagonists and their pharmacological methods of use” (Bayer Pharmaceuticals Corporation, priority 2004, published 2005)
Blank lines part the entries; values can stand above or below the molecule they belong to. Square brackets hold non-standard residues; d marks the D form. Primed or numbered codes have the meaning given here. Side chains are listed from the residue outwards. Ends that are not written are not given here. Peptide text beside a SMILES is read from it. maleimide″ = maleimide group of the 22 kD methoxy-PEG-maleimide reagent, which reacts with the Cys sulfhydryl to form a stable thioether linkage; maleimide = methoxy-PEG-maleimide (thioether to cysteine thiol)

Key:
[1] = tested on: NCI-H727 human non-small cell lung carcinoma cell line; assay: NCI-H727 cancer cell proliferation assay (Alamar Blue); assay type: cell-based
Procedure: NCI-H727 is an adherent human non-small cell lung carcinoma cell line. The cells are grown in RPMI-1640 plus 2 mM L-Glutamine and 10% FBS and cells subcultured in the following manner: Medium was removed and cells were rinsed once in PBS solution. To harvest the cells 10 mls PBS containing 2 ml of trypsin-EDTA solution was added to a 75 ml flask. The flask was incubated at 37° C. until the cells detached. Fresh culture medium was added, aspirated and dispensed into new culture flasks. A split ratio of 1:3 to 1:4 was carried out 2 times per week. The 96-well assay was performed as follows: Day 1) Cells were seeded at 7000 cells/well in 0.2 ml complete medium/well and incubated overnight at 37° C. Day 2) Complete medium was aspirated from wells and 200 ul/well PBS was added and aspirated. Cells were then treated with peptides using the assay medium RPMI-1640 plus 2 mM L-Glutamine and 0.2% FBS at a final volume of 200 ul/well and incubated for 2 days. Day 4) Alamar Blue (10% of total volume) was added to wells and absorbance (530/590 nm) read at 0, 4, 6, 8, 10 and 24 hours.

VPAC2 = target: T1, VPAC2 (Homo sapiens, UniProt P41587); assay: Receptor competition assay, 125I-PACAP27 binding to CHO membranes (VPAC2); conditions: membranes of VPAC2-transfected CHO cells, 0.1 nM 125I-PACAP27
T1 construct: expressed in transfected cells; membranes
T1 sequence (P41587 24-438): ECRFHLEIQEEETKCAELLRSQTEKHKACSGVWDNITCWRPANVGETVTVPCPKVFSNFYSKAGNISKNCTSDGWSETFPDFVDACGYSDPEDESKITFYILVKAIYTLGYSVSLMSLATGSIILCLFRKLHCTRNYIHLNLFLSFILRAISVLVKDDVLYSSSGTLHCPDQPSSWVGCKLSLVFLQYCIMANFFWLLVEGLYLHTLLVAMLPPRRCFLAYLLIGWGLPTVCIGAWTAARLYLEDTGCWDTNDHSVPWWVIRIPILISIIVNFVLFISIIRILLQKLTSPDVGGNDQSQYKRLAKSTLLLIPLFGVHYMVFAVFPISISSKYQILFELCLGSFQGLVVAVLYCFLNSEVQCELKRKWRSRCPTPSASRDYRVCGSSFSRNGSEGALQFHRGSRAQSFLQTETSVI
Description: In order to test for selective binding of the VPAC1 selective antagonist to the VPAC1, both the VPAC1 and VPAC2 receptors were expressed in CHO cells using the following procedure. The human VPAC1 and the VPAC2 were cloned via RT PCR from human heart mRNA and human testis mRNA, respectively, using TaqPlus Precision PCR System (Stratagene). The PCR products were subcloned into pCDNA3.1 (Invitrogen) for in vitro translation and mammalian expression. The cell line chosen for expression was the CHOcreluc line already expressing a cAMP response element-luciferase reporter along with Gα16. These cells were grown under hygromycin selection at 0.4 mg/ml. On the day of transfection, CHOcreluc cells at 70% confluency were washed with serum free media and transfected using Lipofectamine Plus Reagent (Gibco BRL). Stable pools were selected in the presence of 0.4 mg/ml hygromycin and 1.5 mg/ml G418. Once viably-frozen stocks had been made from these pools they were cloned by limiting dilution.
The capacity of the VPAC1 selective antagonist to selectively bind the VPAC1 as opposed to the VPAC2 receptor was measured using membranes prepared from CHO cells transfected with both receptors as described in Example 3. […] The filters were washed with cold 25 mM NaPO4 containing 1% BSA and counted in a gamma counter. […]

human VPAC1 [2] = target: T2, human VPAC1 (human, UniProt P32241 31-457); assay: cell-based or functional assay
T2 sequence (looked up): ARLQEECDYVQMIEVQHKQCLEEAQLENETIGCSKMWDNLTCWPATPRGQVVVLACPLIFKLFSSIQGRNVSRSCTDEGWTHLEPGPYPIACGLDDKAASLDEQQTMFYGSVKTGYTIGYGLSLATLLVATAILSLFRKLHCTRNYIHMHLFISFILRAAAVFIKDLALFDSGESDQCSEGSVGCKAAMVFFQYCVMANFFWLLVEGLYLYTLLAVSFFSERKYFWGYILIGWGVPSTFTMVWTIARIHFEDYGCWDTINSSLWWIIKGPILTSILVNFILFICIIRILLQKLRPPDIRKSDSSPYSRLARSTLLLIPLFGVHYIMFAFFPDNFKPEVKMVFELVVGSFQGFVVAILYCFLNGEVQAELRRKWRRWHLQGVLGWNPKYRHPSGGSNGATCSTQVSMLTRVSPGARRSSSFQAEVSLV

human VPAC1 [3] = target: T2, human VPAC1; assay: competition with 125I-PACAP27 on membranes of CHO cells expressing human VPAC1
Procedure: (§1) Cells were washed with phosphate buffered saline (PBS), scraped in homogenization buffer (10 mM Tris pH 7.4, 2 mM EDTA, 5 mM MgCl2, 1 mM PMSF), followed by centrifugation at 4000 g for 10 minutes at 4° C. The cell pellet was resuspended in homogenization buffer and homogenized using a Polytron. Membranes were collected by centrifugation at 30,000 g for 30 minutes at 4° C., resuspended in homogenization buffer, and stored at −80° C. until use. […] After incubating at 37° C. for 20 minutes, bound ligand was collected on GF/C filters pretreated with 0.1% polyethylenimine. The filters were washed with cold 25 mM NaPO4 containing 1% BSA and counted in a gamma counter. All reagents were purchased from Sigma unless otherwise indicated.

human VPAC1 [4] = target: T2, human VPAC1; assay: ratio of the VPAC2 and VPAC1 IC50 values, 125I-PACAP27 competition on CHO membranes
Procedure: as §1

Molecule: Ac-H[dF]DAVFTNSYRKVLKRLSARKLLQDILC([maleimide-methoxy‑PEG 22 kD])-NH2 (also called PEGylated R2P3) [R2P3-PEG22kD]
- CHO VPAC1 cAMP inhibition (IC50 against 1 nM VIP) (human VPAC1 [2]): 181 nM
- IC50 (human VPAC1 [3]): 21 nM
- VPAC2/1 Selectivity (human VPAC1 [4]): > 480 fold

Molecule: Ac-H[dF]DAVFTNSYRKVLKRLSVRKLLQDILC([maleimide-methoxy‑PEG 22 kD])-NH2 (also called PEGylated R2P11) [R2P11-PEG22kD]
- CHO VPAC1 cAMP inhibition (IC50 against 1 nM VIP) (human VPAC1 [2]): 101 nM
- IC50 (human VPAC1 [3]): 49 nM
- VPAC2/1 Selectivity (human VPAC1 [4]): > 200 fold

Next, values leading:

- IC50 relative to reference compound R2P2 [1]: three times lower
Molecule: CC[C@H](C)[C@H](NC(=O)[C@H](CO)NC(=O)[C@H](CCC(N)=O)NC(=O)[C@H](CC(C)C)NC(=O)[C@H](CC(C)C)NC(=O)[C@H](CCCCN)NC(=O)[C@H](CCCNC(=N)N)NC(=O)[C@H](C)NC(=O)[C@H](CO)NC(=O)[C@H](CC(C)C)NC(=O)[C@H](CCCNC(=N)N)NC(=O)[C@H](CCCCN)NC(=O)[C@H](CC(C)C)NC(=O)[C@@H](NC(=O)[C@H](CCCCN)NC(=O)[C@H](CCCNC(=N)N)NC(=O)[C@H](Cc1ccc(O)cc1)NC(=O)[C@H](CO)NC(=O)[C@H](CC(N)=O)NC(=O)[C@@H](NC(=O)[C@H](Cc1ccccc1)NC(=O)[C@@H](NC(=O)[C@H](C)NC(=O)[C@H](CC(=O)O)NC(=O)[C@@H](Cc1ccccc1)NC(=O)[C@H](Cc1c[nH]cn1)NC(C)=O)C(C)C)[C@@H](C)O)C(C)C)C(=O)N[C@@H](CC(C)C)C(N)=O [Peptide R2P16] (HELM PEPTIDE1{[ac].H.[dF].D.A.V.F.T.N.S.Y.R.K.V.L.K.R.L.S.A.R.K.L.L.Q.S.I.L.[am]}$$$$V2.0)

- IC50 (VPAC2): > 10000 nM
Molecule: R2P3-PEG22kD: R2P3 (SEQ ID NO 4) PEGylated at the C-terminal cysteine with 22 kD methoxy-PEG-maleimide (Ac-H[dF]DAVFTNSYRKVLKRLSARKLLQDILC([maleimide″-methoxy‑PEG 22 kD]); not fully specified (C-terminus); printed as HfDAVFTNSYRKVLKRLSARKLLQDILC*; also: C-terminal * undefined) [Peptide R2P3-PEG22kD]

- IC50 (VPAC2): > 10000 nM
Molecule: R2P11-PEG22kD: R2P11 (SEQ ID NO 5) PEGylated at the C-terminal cysteine with 22 kD methoxy-PEG-maleimide (Ac-H[dF]DAVFTNSYRKVLKRLSVRKLLQDILC([maleimide-methoxy‑PEG 22 kD]); not fully specified (C-terminus); printed as HfDAVFTNSYRKVLKRLSVRKLLQDILC*; also: C-terminal * undefined)

- CHO VPAC1 cAMP inhibition (IC50 against 1 nM VIP) (human VPAC1 [2]): 50 nM
- IC50 (human VPAC1 [3]): 17 nM
- VPAC2/1 Selectivity (human VPAC1 [4]): > 700 fold
B1: R2P16 (peptide)
peptide: HFDAVFTNSYRKVLKRLSARKLLQSIL
HELM: PEPTIDE1{[ac].H.[dF].D.A.V.F.T.N.S.Y.R.K.V.L.K.R.L.S.A.R.K.L.L.Q.S.I.L.[am]}$$$$V2.0
SMILES: CC[C@H](C)[C@H](NC(=O)[C@H](CO)NC(=O)[C@H](CCC(N)=O)NC(=O)[C@H](CC(C)C)NC(=O)[C@H](CC(C)C)NC(=O)[C@H](CCCCN)NC(=O)[C@H](CCCNC(=N)N)NC(=O)[C@H](C)NC(=O)[C@H](CO)NC(=O)[C@H](CC(C)C)NC(=O)[C@H](CCCNC(=N)N)NC(=O)[C@H](CCCCN)NC(=O)[C@H](CC(C)C)NC(=O)[C@@H](NC(=O)[C@H](CCCCN)NC(=O)[C@H](CCCNC(=N)N)NC(=O)[C@H](Cc1ccc(O)cc1)NC(=O)[C@H](CO)NC(=O)[C@H](CC(N)=O)NC(=O)[C@@H](NC(=O)[C@H](Cc1ccccc1)NC(=O)[C@@H](NC(=O)[C@H](C)NC(=O)[C@H](CC(=O)O)NC(=O)[C@@H](Cc1ccccc1)NC(=O)[C@H](Cc1c[nH]cn1)NC(C)=O)C(C)C)[C@@H](C)O)C(C)C)C(=O)N[C@@H](CC(C)C)C(N)=O
notes: Synthetic VIP/GHRH hybrid peptide, not PEGylated; also called Peptide R2P16
